Source: IntAct's records for PubMed 35512704

B1: Speckle-type POZ protein (Homo sapiens), O43791 (parent)
chain: MSRVPSPPPPAEMSSGPVAESWCYTQIKVVKFSYMWTINNFSFCREEMGEVIKSSTFSSGANDKLKWCLRVNPKGLDEESKDYLSLYLLLVSCPKSEVRAKFKFSILNAKGEETKAMESQRAYRFVQGKDWGFKKFIRRDFLLDEANGLLPDDKLTLFCEVSVVQDSVNISGQNTMNMVKVPECRLADELGGLWENSRFTDCCLCVAGQEFQAHKAILAARSPVFSAMFEHEMEESKKNRVEINDVEPEVFKEMMCFIYTGKAPNLDKMADDLLAAADKYALERLKVMCEDALCSNLSVENAAEILILADLHSADQLKTQAVDFINYHASDVLETSGWKSMVVSHPHLVAEAYRSLASAQCPFLGPPRKRLKQS
partner: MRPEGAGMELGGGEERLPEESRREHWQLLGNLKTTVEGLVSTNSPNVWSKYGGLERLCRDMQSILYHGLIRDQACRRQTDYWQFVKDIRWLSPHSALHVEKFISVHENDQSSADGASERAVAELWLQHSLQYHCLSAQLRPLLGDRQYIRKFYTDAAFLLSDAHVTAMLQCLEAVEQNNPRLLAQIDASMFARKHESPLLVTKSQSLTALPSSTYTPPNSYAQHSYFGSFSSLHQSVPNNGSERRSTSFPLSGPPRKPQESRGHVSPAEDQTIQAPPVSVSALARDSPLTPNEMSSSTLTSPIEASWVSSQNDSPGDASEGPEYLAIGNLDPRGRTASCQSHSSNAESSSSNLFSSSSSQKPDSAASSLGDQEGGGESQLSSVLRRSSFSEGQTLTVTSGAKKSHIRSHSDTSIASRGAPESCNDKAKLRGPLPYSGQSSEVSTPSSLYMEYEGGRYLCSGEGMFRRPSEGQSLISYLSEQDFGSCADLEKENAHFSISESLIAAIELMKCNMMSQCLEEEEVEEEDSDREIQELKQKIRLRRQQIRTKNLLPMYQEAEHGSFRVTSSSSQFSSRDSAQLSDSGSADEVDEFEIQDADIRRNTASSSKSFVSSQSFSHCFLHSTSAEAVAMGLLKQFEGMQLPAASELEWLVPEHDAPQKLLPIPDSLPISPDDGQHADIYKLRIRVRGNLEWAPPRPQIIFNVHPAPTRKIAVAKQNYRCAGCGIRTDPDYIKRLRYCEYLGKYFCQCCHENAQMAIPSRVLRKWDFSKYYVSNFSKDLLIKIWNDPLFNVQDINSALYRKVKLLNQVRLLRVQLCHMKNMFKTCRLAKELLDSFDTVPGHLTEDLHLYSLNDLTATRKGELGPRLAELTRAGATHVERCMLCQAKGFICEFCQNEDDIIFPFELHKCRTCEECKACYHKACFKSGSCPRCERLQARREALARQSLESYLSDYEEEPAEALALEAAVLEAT
B2: Speckle-type POZ protein (Homo sapiens), O43791 (parent)
chain: B1 chain
partner: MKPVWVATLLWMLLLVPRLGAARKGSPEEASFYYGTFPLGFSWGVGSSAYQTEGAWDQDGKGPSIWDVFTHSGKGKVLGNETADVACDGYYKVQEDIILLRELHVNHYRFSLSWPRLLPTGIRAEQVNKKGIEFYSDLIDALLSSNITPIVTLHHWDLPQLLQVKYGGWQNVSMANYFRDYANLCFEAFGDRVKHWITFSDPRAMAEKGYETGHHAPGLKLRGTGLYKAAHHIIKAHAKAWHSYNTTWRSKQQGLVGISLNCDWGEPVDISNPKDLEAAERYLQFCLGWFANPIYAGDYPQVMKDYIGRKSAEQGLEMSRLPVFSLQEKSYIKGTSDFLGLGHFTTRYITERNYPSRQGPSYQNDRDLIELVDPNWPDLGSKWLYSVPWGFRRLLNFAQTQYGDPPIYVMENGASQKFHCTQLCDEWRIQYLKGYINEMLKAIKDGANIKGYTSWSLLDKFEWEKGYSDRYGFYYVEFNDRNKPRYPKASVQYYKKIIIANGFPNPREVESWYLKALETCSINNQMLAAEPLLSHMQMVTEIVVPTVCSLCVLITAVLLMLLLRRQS
B3: Speckle-type POZ protein (Homo sapiens), O43791 (parent)
chain: B1 chain
partner: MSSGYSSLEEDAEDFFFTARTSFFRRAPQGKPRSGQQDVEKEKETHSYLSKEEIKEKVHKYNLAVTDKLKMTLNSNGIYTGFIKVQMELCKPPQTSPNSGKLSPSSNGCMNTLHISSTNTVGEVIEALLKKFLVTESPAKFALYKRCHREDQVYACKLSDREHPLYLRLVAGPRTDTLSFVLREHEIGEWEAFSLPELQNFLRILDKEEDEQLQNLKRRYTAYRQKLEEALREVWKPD
B4: Speckle-type POZ protein (Homo sapiens), O43791 (parent)
chain: B1 chain
partner: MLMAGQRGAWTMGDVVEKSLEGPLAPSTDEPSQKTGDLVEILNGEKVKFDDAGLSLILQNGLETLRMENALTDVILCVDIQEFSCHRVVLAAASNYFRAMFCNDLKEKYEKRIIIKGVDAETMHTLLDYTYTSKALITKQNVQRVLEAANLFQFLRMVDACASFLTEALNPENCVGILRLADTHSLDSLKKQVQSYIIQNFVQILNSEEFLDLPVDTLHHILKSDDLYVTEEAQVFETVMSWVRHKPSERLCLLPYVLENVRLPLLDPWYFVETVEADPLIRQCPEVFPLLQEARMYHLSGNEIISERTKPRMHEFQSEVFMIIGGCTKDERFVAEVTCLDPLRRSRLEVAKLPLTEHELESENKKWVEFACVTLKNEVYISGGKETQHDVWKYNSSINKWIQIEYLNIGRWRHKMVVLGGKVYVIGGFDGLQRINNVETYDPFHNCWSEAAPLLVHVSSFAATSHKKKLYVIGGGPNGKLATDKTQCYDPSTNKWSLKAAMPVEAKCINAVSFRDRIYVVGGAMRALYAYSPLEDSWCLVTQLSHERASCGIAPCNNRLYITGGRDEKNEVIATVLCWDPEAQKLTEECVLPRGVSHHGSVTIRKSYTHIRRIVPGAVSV

Variants of: B1
Settings: with rubic_human RUBCN

Variant | effect of a mutation on the interaction
Y87C | with no effect

Variants of: B2
Settings: with lctl_human LCTL

Variant | effect of a mutation on the interaction
F102C | with no effect

Variants of: B2
Settings: with lctl_human LCTL
Remark: another data set of the same source

Variant | effect of a mutation on the interaction
F133V | with no effect

Variants of: B2
Settings: with lctl_human LCTL
Remark: another data set of the same source

Variant | effect of a mutation on the interaction
F133L | with no effect

Variants of: B2
Settings: with lctl_human LCTL
Remark: another data set of the same source

Variant | effect of a mutation on the interaction
Y87C | with no effect

Variants of: B3
Settings: with rasf3_human RASSF3, Q86WH2

Variant | effect of a mutation on the interaction
F133V | with no effect

Variants of: B3
Settings: with rasf3_human RASSF3, Q86WH2
Remark: another data set of the same source

Variant | effect of a mutation on the interaction
F133L | with no effect

Variants of: B3
Settings: with rasf3_human RASSF3, Q86WH2
Remark: another data set of the same source

Variant | effect of a mutation on the interaction
Y87C | with no effect

Variants of: B3
Settings: with rasf3_human RASSF3, Q86WH2
Remark: another data set of the same source

Variant | effect of a mutation on the interaction
F102C | with no effect

Variants of: B4
Settings: with klhl6_human KLHL6, Q8WZ60

Variant | effect of a mutation on the interaction
Y87C | with no effect

Variants of: B4
Settings: with klhl6_human KLHL6, Q8WZ60
Remark: another data set of the same source

Variant | effect of a mutation on the interaction
F133V | with no effect
